target: T1, second SH3 domain from Nck; test: ITC; SH3 domain in the cell, chemically synthesized peptide as titrant in the syringe; PBS pH 7.4, 25 °C; one-site binding model; conditions: both partners purified
T1 construct: second SH3 domain of Nck; The methods say that 6His-tagged proteins were purified on Ni-IDA and that the tag could be removed with TEV protease; also called free SH3; SH3 domain proteins; source: E. coli BL21 (DE3), pET-21a, purified (Ni-IDA)

Kd	Binder
12.8 µM	MKKTPPPVPPRTTSK [PRM(H) peptide, wild type]
121 µM	ELELTAPTPPKRS [ELEL mutant PRM peptide (four Lys residues mutated to acidic ELEL)]
102 µM	MKKTPPPVAPRTTSK [P9A mutant PRM(H) peptide]
3.32 µM	MEETPPPVPPRTTSK [EE mutant PRM(H) peptide (two Lys residues mutated to acidic EE)]
19.4 µM	MKKTPPAVPPRTTSK [P7A mutant PRM(H) peptide]
131 µM	MKKTPPAVAPRTTSK [P7A P9A double mutant PRM(H) peptide]
379 µM	MKKKKTAPTPPKRS [proline-rich motif (PRM) peptide, wild type]

— PMC7642319, “Behavior control of membrane-less protein liquid condensates with metal ion-induced phase separation” (Nature Communications, 2020)
